Laboratory results as given in the DeepSol protein solubility set.

Assay: soluble on expression in E. coli; label from the status in PepcDB or PDB records

Sequence	soluble on expression in E. coli
GPGSMNPSAAAYIPQQSDAKGDPKSSSAAAVAKPPSTQPATKLSAAAEPFVPGGPKQMSATSTHVDPKATTEDEKTTAPLLMECPASSLPDSAAAAGAAKKEADENDDSQLDWLPEAQPTDWSESKLPKLFGCHNTAAKATSSAIPLHASWDLYADDHQGSSNMASNSSPTSTMSFEPIFVSNVGDVESFWRLWRYLPAPSALPTVYTYSWFRKDIKPEWEHPRNKKGGTISIVVFDRDRSGLSDKQVLDDVFMAMLVGAVGESFHECSTTLNGIMLKVRSNKPVTLQLWTAHSEVGKLKAFANSVRDTLTKIMGAKTLQKLEYYSHHQKQAATNSLAARMKGKTKISPDHTF	soluble
MGSDKIHHHHHHVSKPLTGIHILVTRPSHQAGGLAGKIRAAGGEPCLFPVLEIQDISDPRPLLELIERLDEFYLAIFVSPNAVNKAMSVICAKRALPSDLKIATVGQGTARTLRRFGVSGVIVPAVRFDSEALLDMAELDRINVAGKRIIIFRGDNGRELLGETLRKRGASVEYAECYRRIRPEAEIGPLLAAWTRGEMNGVTVTSSEGLRNLWEMVGDSGRTWLENTPLFVSHERIAGVARKLGFNRVIVTAAGDDGLVAGLQDYFSGHMG	not soluble
ICMNVENKVTHKPLEFNYTDKYCGNVKNLISCKLYQHALTLIDSFRKDKTI	not soluble
MPKLPLLLSFPLLFFASFAYADEDFVTCYSVLKFINANDGSRLHSHDVKYGSGSGQQSVTAVKNSDDINSHWQIFPALNAKCNRGDAIKCGDKIRLKHLTTGTFLHSHHFTAPLSKQHQEVSAFGSEAESDTGDDWTVICNGDEWLESEQFKLRHAVTGSYLSLSGQQFGRPIHGQREVVGTDSITGGSAWKVAEGIYIKHQQKDL	soluble
GMARRDISGAVDFAYLEGFAAGDFAVVDEVLALFREQAALWAPMLDPTHPGWKDAVHTVKGAARGVGAFNLGEVCERCEAGQESLEGVRTALDAALLDIAAYAHEQALRSLKG	soluble
SVMYEEDFVLNSRGMKLFTCVWKPVKQEPKALLFLCHGYAMESSITMNSAATRLANAGFAVYGMDYEGHGKSEGLNGYISNFDDLVDDVSNHYSTICEREENKGKMRFLLGESMGGAVVLLLARKKPDFWDGAVLVAPMCKLADEIKPHPVVISILIKLAKFIPTWKIVPGNDIIDIAIKEPHIRNQVRENKYCYKGRPRLNTAYQLLLVSLDLEKNLHQVSIPFIVLYGEDDKVTDKSISKMLYEVASSSDKTFKLYPKMWHALLYGETNENSEIVFGDIINWLEDRATDSNGGLESQLKHKHDGFLKHK	soluble
MSLKHTRPSIVNKRIDGRLTMSDNSKTRVVVGMSGGVDSSVTALLLKEQGYDVIGIFMKNWDDTDENGVCTATEDYKDVVAVADQIGIPYYSVNFEKEYWDRVFEYFLAEYRAGRTPNPDVMCNKEIKFKAFLDYAMTLGADYVATGHYARVARDEDGTVHMLRGVDNGKDQTYFLSQLSQEQLQKTMFPLGHLKKPEVRKLAEEAGLSTAKKKDSTGICFIGEKNFKNFLSNYLPAQPGRMMTVDGRDMGEHAGLMYYTIGQRGGLGIGGQHGGDNAPWFVVGKDLSKNILYVGQGFYHDSLMSTSLEASQVHFTREMPEEFTLECTAKFRYRQPDSKVTVHVKGDKAEVIFAEPQRAITPGQAVVFYDGEECLGGGLIDNAYRDGQVCQYIEGHHHHHH	soluble
SACSRDTPEAPQSTSATSSAAPSTTSASTTAPSSASASSITQTSKVSSQAEAPTSVPPMLDSKHKNVQRAFEQFGALAPESLFAQFDTCDANGVQNSMACSGHDVGQFQFFKSDAKAASTTQLLTELRSSRVIEDTGRR	not soluble
MRGSHHHHHHGMASMRILLSNDDGVHAPGIQTLAKALREFADVQVVAPDRNRSGASNSLTLESSLRTFTFDNGDIAVQMGTPTDCVYLGVNALMRPRPDIVVSGINAGPNLGDDVIYSGTVAAAMEGRHLGFPALAVSLNGYQHYDTAAAVTCALLRGLSREPLRTGRILNVNVPDLPLAQVKGIRVTRCGSRHPADKVIPQEDPRGNTLYWIGPPGDKYDAGPDTDFAAVDEGYVSVTPLHVDLTAHSAHDVVSDWLDSVGVGTQW	soluble
MAHHHHHHMHAVPKDDAEAPLSNTESRGRVALIDTSGYASDMNISAFVPQHAMKPYRVLAAMEIVRSLKIDAHCRTVVPPLVKVEELMAYHTDTYLANLGLHSCRSWLWNAETSKVFFSGDCPPVEGLMEHSIATASGTLMGAVLLNSGQVDVAVHWGGGMHHSKCGECSGFCYVNDIVLGILELLKCHDRVLYVDIDMHHGDGVDEAFCTSDRVFTLSLHKFGESFFPGTGHPRDVGYGRGRYYSMNLAVWDGITDFYYLGIFEHALHSIVRRYSPDAIVLQCGADSLAGDRLGLLNLSSFGHGQCVQAVRDLGIPMLALGGGGYTIRNVAKLWAYETSILTGHPLPPNTVLPVAEMPLSGWLFQDSPLLIVAQDRSNHVLPGLHCQRAYQMMTEQIDRHVPHIQPHPRLQKAFTAAEAADKQVEDGTTAVEDFK	not soluble
MTTTGHVHFYIGTYTNPPSTSTSTGIARLSLNTETGELTRLDDVVVQRNPSYLTTTEHGLYTFSEMDRNEGTELAFFRGSESVSLPINGDYPCHLDIKEPLLAVANYGSGNVSVFQLDRDGKPLGLLADLYVDGCGPNLERQTSPHAHQVTFLKHSHQLVVVDLGSDSVLIYDYDAQPPDFSLSQVIHLPAGSGPRHVVFNQQESTAYVVCELSETLIVLVKHQDKWLISNQTELLEGEENQQAAAAIRLSQDETFLYVSCRAQNKISMFDVSGDTPKRRAAIHCEGVFPRDFVLSHDQKWLLVANQHSNNVVSFRRNPQTGEITPTGYDCEIGSPVCIVEQPLLEHHHHHH	not soluble
SDLFTDGDIFQDIVDAACKRRVPVYIILDEAGVKYFLEMCQDLQLTDFRIRNIRVRSVTGVGFYMPMGRIKGTLSSRFLMVDGDKVATGSYRFTWSSSHVDRNLLLLLTGQNVEPFDTEFRELYAISEEVDLYRQLSLAGRVGLHYSSTVARKLINPKYALVSGCRHPPGEMMRWAARQQWEAGGNPEGQEEGASGGESAWRLESFLKDLVTVEQVLPPVEPIPLGELSQKDGRMVSHMHRDLKPKSREAPSRNGMGEAARGEAAPARRFSSRLFSRRAKRPAAPNGMASSVSTETSEVEFLTGKRPNENSSADISGKTSPSSAKPSNCVIS	soluble
MRTMKAPSMGATVEVLSFLQPVTRELVHRSSIAEVFVTDGVRTGENAFSVGAQWPRDHALYHPDENGLNDPLLFAETLRQAHFYGAHTYFGVPVGSRFIGQDVSFEITDPTALRVGAAPLAVVLNGTWTEERDRRGRPAGARLDVTLTVDGRPCGRGHTRGLMLDDRRYRLLRGRPAASGEVSPPRPAPDARIARPNRVGRLRWKDCVLERDRPDQDWRLRVDRDHAVLFDHPTDHVPLMVMLEGFRQLGHLTVHEASRRTLGDRAFALAGLSLDCAAFGELGETILLSLEKGPSEGVPTEECALRVAAHQGERLLARADMTWKCVGSRAPWSRFASWLEHHHHHH	not soluble
MEHEGLLVAEREIEVNNYDIDAMGIVSNIVYIRWFEDLRTIFINEYMTFSEMMKEHISPILMKTEIEYKVPITIHDKPVGRCWFVKAGRMKWVFKFEITSGDKVHCIGQQTGGFLDLERQRITKMPLEHHHHHH	not soluble
MSFQNQFTKTTTDANLMETVHHGSAEYPFRYYYENIALFDFKCIDWHWHSELEFIYIESGNVVFDIGTVHFELNEGNGIMINSKILHRLQSSSDAIIPNFLFQPSFIAPQDSLIYKKYINPVISSSLEYLVFQPDIPWQKKALEIIKTIIAVQETEFNREIIVSMSVQQLWILLLENLTFDQFENMGAVISRTRLQLMMQYVHAHYSENITLEDIARTANISKSTALHLFQNNLKLTPVKYLINYRLTQAALLLINTEEKIATISNNTGFNNVDHFCRTFKKTYKMTPTDYRNQERAPVS	not soluble
MGSDKIHHHHHHMEIKETYDFSSIVDLWNKNIGTVYPMNLELFKQNYINDRQRKKIMGAFNGEILIGFVIYKQWTYKSGSLKPNHKIGYINSIIVDINFRHQGIGTKLLDAAEEELINSGVKILRCGSDTYHFFPGIPLECLPSEEFFLVRGYKMQDYFYDLIGDVSKVDFKKPSIKDGFKVNVMKPEDRKGLFEFLEKSFSGRWLEEFIEFFQVGMKERDIVLIKYKTSVIGFSHIYDNKSSFIGPPIYWKALLGHNYGGLGPIGIDKTYRKQGLGRLLLYESLQILKKREVKKMVIDWTEKDIINFYGRFNFMPWKAYRKATKEVKDGKG	not soluble
KMAHIGSWKWDIVTGELYWSDELYLIFGLDPQEFRPAYNSFFNYIHPGDRDFVDNAIKKALNGEQLYDNDHRIISADGEERIVHSHGEVIFDEKNTPVRMRGTLQDIT	not soluble
MGSDKIHHHHHHMRILLVGHYPPHKGGVARHVKQLKECLEKRHEVYVLTYGTVAVEEENVYSVKVPNIFGIRGTSFALLASKKIVKLHEKYNFDLVHAHYVGTTSFAGVLAKRKTGVPLVITAHGSDLEFMSRLPLGGYFVKTSIMEADYVIAVSHYLAKKALELGASRISVIPNWTELSGESERKYILFLGRVASYKGIEDFIELAKRFPGEEFVVAGEGPLLKKLRAKSPPNVKFLGYVPAEDVLKKAKVLVLPSKREGFGLVVIEANSFKVPVLGRNVGGIRELIRFSKNGYLFEDIEDAITYLKTLLVPKTNVKLGSIGKRISKGHSQEKMCERVEEIYREVIS	not soluble
MAHHHHHHMGTLEAQTQGPGSMKGEPKVIERLNEALFLELGAVNQYWLHYRLLNDWGYTRLAKKEREESIEEMHHADKLIDRIIFLEGFPNLQTVSPLRIGQNVKEVLEADLKGEYDARASYKESREICDKLGDYVSKQLFDELLADEEGHIDFLETQLDLLAKIGGERYGQLNAAPADEAE	soluble
NTKGIDEIKNLETDFNGRIGVYALDTGSGKSFSYRANERFPLCSSFKGFLAAAVLKGSQDNRLNLNQIVNYNTRSLEFHSPITTKYKDNGMSLGDMAAAALQYSDNGATNIILERYIGGPEGMTKFMRSIGDEDFRLDRWELDLNTAIPGDERDTSTPAAVAKSLKTLALGNILSEHEKETYQTWLKGNTTGAARIRASVPSDWVVGDKTGSCGAYGTANDYAVVWPKNRAPLIISVYTTKNEKEAKHEDKVIAEASRIAIDNLK	soluble
MGSDKIHHHHHHMIEIGKRCTLEIVKRVDFGVYLNAHEFGQVLLPNKVAPQGCEVGDSVEVFLYLDSEDMVIATTKRPKAQVGQFAYLKAVATGPYGAFLDWGLDKDLMLPFGEQHREIEVGRSYLVYVYVNSADDRIVASSKIDKFLDRTPPPYRNGQEVSLIIAGTTDLGYKAIIDNGHWGVLYKNEVYQPLKFGQRIKGFIKRVRSDDKIDLILQRGAKEELDKHATAILMKLNQAGGFLPLTDKTDAEVIYAELAMSKKAFKKSIGGLYKQQKIAIEADGIRLTE	not soluble
MGFMIEHWDFSTPMATQETTTAEHIQPNHWYHCERLHPDIRSWLEDNHVPRATVDHLLADESRPSFHPLDDDNFMLILRGINMNENASPEDMLSIRILYFQGALISTRKIPSRAIMEIRQALAEHKGPKSLASLLNQIIEGLNGKIDLYLDTIEETLNEFDVNDESTYNHIAAQKALISIKRFIRPQQYAIRDLIESESELVTSRPHQYRFAHNNITRINETIEFYLGEVALFQDEIKHNRDEKTNKNS	soluble
MNYHQYYPVDIVNGPGTRCTLFVSGCVHECPGCYNKSTWRVNSGQPFTKAMEDQIINDLNDTRIKRQGISLSGGDPLHPQNVPDILKLVQRIRAECPGKDIWVWTGYKLDELNAAQMQVVDLINVLVDGKFVQDLKDPSLIWRGSSNQVVHHLRLEHHHHHH	soluble
MNNSSFFGNRLKEERKKLKMTQAEIAEKCGVSGRMWGDYERGISQPKAELFFQFEKVGIDVQYVMHGRRGETAVMPSETLNAEEQELLVLFREAAAADREMILMVARRAEKKAQTALGKVSNG	not soluble
